Experimental data reported in patent publication CN111349168A (DONGGUAN PENGZHI BIOTECHNOLOGY CO LTD, dated 2020).

Target: T1, CKMB(PAJ18) (human, UniProt P06732 1-381; P12277 1-381)
T1 construct: Antigen reagent named only as CKMB(PAJ18); Its source and construct are not described; also called 杂化型肌酸激酶同工酶; CKMB抗原
Test: biolayer interferometry, antibody captured on AMC sensor, CKMB in solution

T1 sequence (P06732 whole entry, chain 1 of 2): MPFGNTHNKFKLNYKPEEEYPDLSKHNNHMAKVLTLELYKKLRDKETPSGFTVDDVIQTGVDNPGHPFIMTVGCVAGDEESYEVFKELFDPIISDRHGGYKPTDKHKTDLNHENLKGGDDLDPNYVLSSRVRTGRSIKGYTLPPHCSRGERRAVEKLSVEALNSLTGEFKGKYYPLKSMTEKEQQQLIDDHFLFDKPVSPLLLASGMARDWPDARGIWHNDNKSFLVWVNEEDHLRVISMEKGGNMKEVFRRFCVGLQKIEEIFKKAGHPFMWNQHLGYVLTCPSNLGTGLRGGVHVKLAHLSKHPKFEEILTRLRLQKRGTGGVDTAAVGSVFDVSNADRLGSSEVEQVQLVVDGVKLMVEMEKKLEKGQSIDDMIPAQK
T1 sequence (P12277 whole entry, chain 2 of 2): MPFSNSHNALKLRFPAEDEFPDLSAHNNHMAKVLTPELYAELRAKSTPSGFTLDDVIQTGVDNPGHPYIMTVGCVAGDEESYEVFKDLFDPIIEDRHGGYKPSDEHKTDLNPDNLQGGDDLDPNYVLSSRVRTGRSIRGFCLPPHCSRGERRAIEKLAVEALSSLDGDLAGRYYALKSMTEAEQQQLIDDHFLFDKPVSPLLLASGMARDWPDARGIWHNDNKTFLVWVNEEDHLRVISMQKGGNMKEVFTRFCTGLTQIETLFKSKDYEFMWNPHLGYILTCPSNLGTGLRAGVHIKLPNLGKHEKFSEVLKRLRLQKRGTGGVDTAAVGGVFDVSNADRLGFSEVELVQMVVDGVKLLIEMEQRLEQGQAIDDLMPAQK

- Kd: 77.6 nM
- koff: 0.00512 s⁻¹
- kon: 66000 M⁻¹ s⁻¹
B1: Anti-CKMB 10C5 recombinant antibody (WT) (antibody, V domains shown)
VH: DVQLQESGPGLVKPSQTMSLTCTVTGVSITTGTDRWSWIRQFPGNKLEWIGYIFYSGTLTYNPSVTSRTTITRDTSKNQFFLEMNSLTAEDTATYYCARERTYYPYGYFDVFGTGTTVTVSS
VL: DIQMNQSPSSLSASLGDTITITCHGSNNINIWLSWYQQKPGNTPKLLIYKGSDIHTGVSSRFSGSGSGTAFTLTISSLQPEDIATYYCQQAQSYAWTWGGGTKLEIK
